Consider 7 molecules from patent publication US20160046573A1, “IDENTIFYING PATIENT RESPONSE TO S1P RECEPTOR MODULATOR ADMINISTRATION” (Novartis AG, priority 2013, published 2016).

By Km is commonly meant the substrate concentration at which the rate is half of its maximum. The term kcat/Km denotes the turnover number divided by the Michaelis constant.

Data set [1] is described as follows: Inhibition of [14C]BAF312 biotransformation in HLM by CYP-specific chemical inhibitors. To be noted: for Rate / Relative activity: 5 μM BAF312, HLM 0.1 mg/mL, 90 min. The procedure: The incubations were carried out in 0.1 M phosphate buffer, pH 7.4. Typical incubations of 200 (or 400) μL total volume were prepared as follows: 10 μL of 100 mM MgCl2 (5 mM), stock solutions of CHAPS, substrate and microsomes or recombinant human cytochrome P450 isoenzymes were added to appropriate volume of the buffer. […] Reaction was started by addition of 20 μL of a fresh 10 mM NADPH (1 mM). The final concentrations are given in parentheses. The final concentrations of organic solvent were maximally 0.5% (v/v). For some experiments, higher incubation volumes were prepared by keeping proportionally the quantity of all solutions. The samples were incubated at 37° C. in a thermomixer (Eppendorf 5355) with agitation at 500 rpm.
The incubation reactions were stopped and the protein was precipitated by addition of an equal volume of ice-cold 0.5% formic acid in acetonitrile. After 30 min at −80° C. (or overnight at −20° C.) the samples were centrifuged at 30,000×g for 15 min. The supernatant was withdrawn. Aliquots were analyzed by LSC (20 μL) and the supernatant was diluted appropriately with water to obtain a final solution containing less than 30% of acetonitrile. For samples with lower concentration in substrate, supernatants were evaporated to about the half of initial volumes under reduced pressure at 40° C. with SpeedVac® concentrator (model AES 2010, Savant Inc., Holbrook, N.Y., USA) then mixed with 0.5% formic acid in acetonitrile to obtain a final solution containing less 30% of acetonitrile. Sample solutions were analyzed by HPLC combined with radiodetection. (for HLPC method, see Section 1.6)
The biotransformation of BAF312 was tested at 5 μM substrate concentration in the presence of the 8 individual chemical inhibitors.

Substrate in data set [2]: CCc1cc(/C(C)=N/OCc2ccc(C3CCCCC3)c(C(F)(F)F)c2)ccc1CN1CC(C(=O)O)C1
The experiment in a line: Enzyme mapping: metabolite formation by recombinant P450 isoenzyme. It is filed as in vitro ADME, human. To be noted: estimated by solving the Michaelis-Menten equation for the 2 substrate concentrations, pH 7.4. The procedure:
(§1) Microsomes prepared from baculovirus infected insect cells (BTI-TN-5B1-4) expressing the following human P450 enzymes and the insect cell membrane preparations (negative control) were obtained from BD Biosciences (Woburn, Mass., USA).
(§2) The final concentrations are given in parentheses.
(§3) After 30 min at −80° C. […] The supernatant was withdrawn. […] Sample solutions were analyzed by HPLC combined with radiodetection. (for HLPC method, see Section 1.6)
Mean specific CYP enzyme concentrations in human liver microsomes were obtained from literature values (Rowland Yeo K, Rostami-Hodjegan A and Trucker GT (2004)] Abundance of cytochromes P450 in human liver: a meta-analysis. Br. J. Clinical Pharmacology; 57:687-688). For some recombinant human CYPs, the enzyme kinetic parameters were estimated by calculation assuming Michaelis-Menten type behavior for the two concentrations used, solving a linear equation system for 2 linear equations with 2 variables: […]
Microsomes prepared from baculovirus infected insect cells (BTI-TN-5B1-4) expressing one single human cytochrome P450 isoenzyme were used to assess the involvement of specific enzymes in the biotransformation of [14C]BAF312. Incubation experiments with a panel of 21 recombinant human CYPs (CYP1A1, 1A2, 1B1, 2A6, 2B6, 2C8, 2C9*1, 2C18, 2C19, 2D6*1, 2E1, 2J2, 3A4, 3A5, 3A7, 4A11, 4F2, 4F3A, 4F3B, 4F12 and CYP19) were conducted under similar conditions for each isoenzyme with 10 and 40 μM BAF312 incubation and 30 pmol CYP/mL for 30 min. […] Lower metabolism activities were also observed in incubation with CYP3A4, while some trace metabolism was detected with other CYP isoenzymes (2B6, 2C8, 2C19, 2J2, 3A5, 1A1).

Substrate in data set [3]: CCc1cc(/C(C)=N/OCc2ccc(C3CCCCC3)c(C(F)(F)F)c2)ccc1CN1CC(C(=O)O)C1
The data set is described as follows: Enzyme kinetics of [14C]BAF312 metabolism by rhCYP2C9. The class given is in vitro ADME, human. To be noted: other: CYP 2C9; obtained from kinetic experiments; pH 7.4. The procedure: The concentration-dependent kinetics of [^14C]BAF312 biotransformation (total metabolites) in rhCYP2C9 (50 pmol/mL) after 60 minutes incubation was plotted as Michaelis-Menten plot (upper) and as Eadie-Hofstee plot (V vs. V/S, bottom) fitted with substrate inhibition model using substrate concentrations 5-300 μM.
as §1, §2, §3
Enzyme kinetic parameters Vmax and Km of the biotransformation by HLM and major metabolizing enzymes were calculated by using SigmaPlot Version 8.0 (S1), Enzyme Kinetics module Version 1.1 software (SPSS Science Inc., Chicago, Ill., USA). The intrinsic clearance was calculated by the equation: CLint=Vmax/Km.
Enzyme kinetics parameters of the isoenzymes CYP2C9 and CYP3A4 for BAF312 metabolism were determined by incubating different concentrations of [^14C]BAF312 with the isoenzyme.

In the case of `S=P(N1CC1)(N1CC1)N1CC1` [Triethylenethiophosphoramide], the Rate in data set [1] (5 μM inhibitor) came out at 18.3 pmol/min/mg; in data set [1] (20 μM inhibitor), 18.8 pmol/min/mg. Besides, the Relative activity in data set [1] (5 μM inhibitor) came out at 106%; in data set [1] (20 μM inhibitor), 109%.

`N[C@@H]1C[C@H]1c1ccccc1` (racemic) [Tranylcypromine]: the “inhibition of BAF312 metabolism” value in data set [1] (2 μM and 10 μM inhibitor, 5 μM substrate concentration, HLM) was 11-29%. Moreover, in data set [1] (2 μM inhibitor), the Rate came out at 15.3 pmol/min/mg and the Relative activity was found to be 89%. Besides, in data set [1] (10 μM inhibitor), the Rate is 12.2 pmol/min/mg and the Relative activity is reported as 71%.

B1: CYP2J2 (Homo sapiens) (protein)
chain: MLAAMGSLAAALWAVVHPRTLLLGTVAFLLAADFLKRRRPKNYPPGPWRLPFLGNFFLVDFEQSHLEVQLFVKKYGNLFSLELGDISAVLITGLPLIKEALIHMDQNFGNRPVTPMREHIFKKNGLIMSSGQAWKEQRRFTLTALRNFGLGKKSLEERIQEEAQHLTEAIKEENGQPFDPHFKINNAVSNIICSITFGERFEYQDSWFQQLLKLLDEVTYLEASKTCQLYNVFPWIMKFLPGPHQTLFSNWKKLKLFVSHMIDKHRKDWNPAETRDFIDAYLKEMSKHTGNPTSSFHEENLICSTLDLFFAGTETTSTTLRWALLYMALYPEIQEKVQAEIDRVIGQGQQPSTAARESMPYTNAVIHEVQRMGNIIPLNVPREVTVDTTLAGYHLPKGTMILTNLTALHRDPTEWATPDTFNPDHFLENGQFKKREAFMPFSIGKRACLGEQLARTELFIFFTSLMQKFTFRPPNNEKLSLKFRMGITISPVSHRLCAVPQV
notes: purchased BD Biosciences 456264; host or cells: baculovirus infected insect cells (BTI-TN-5B1-4)
As to B1, in data set [2] (other: CYP 2J2), the Km is 374 µM, the kcat is 106.7 pmol/(min · nmol CYP) and the kcat/Km is 0.3 μL/(min. · nmol CYP).

B2: CYP2C19 (Homo sapiens) (protein)
chain: MDPFVVLVLCLSCLLLLSIWRQSSGRGKLPPGPTPLPVIGNILQIDIKDVSKSLTNLSKIYGPVFTLYFGLERMVVLHGYEVVKEALIDLGEEFSGRGHFPLAERANRGFGIVFSNGKRWKEIRRFSLMTLRNFGMGKRSIEDRVQEEARCLVEELRKTKASPCDPTFILGCAPCNVICSIIFQKRFDYKDQQFLNLMEKLNENIRIVSTPWIQICNNFPTIIDYFPGTHNKLLKNLAFMESDILEKVKEHQESMDINNPRDFIDCFLIKMEKEKQNQQSEFTIENLVITAADLLGAGTETTSTTLRYALLLLLKHPEVTAKVQEEIERVIGRNRSPCMQDRGHMPYTDAVVHEVQRYIDLIPTSLPHAVTCDVKFRNYLIPKGTTILTSLTSVLHDNKEFPNPEMFDPRHFLDEGGNFKKSNYFMPFSAGKRICVGEGLARMELFLFLTFILQNFNLKSLIDPKDLDTTPVVNGFASVPPFYQLCFIPV
notes: purchased BD Biosciences 456259; host or cells: baculovirus infected insect cells (BTI-TN-5B1-4)
On to B2, for which, in data set [2] (other: CYP 2C19), the Km was 140 µM, the kcat is reported as 100 pmol/(min · nmol CYP) and the specificity constant (kcat/Km) was 0.7 μL/(min. · nmol CYP).

B3: CYP1A1 (Homo sapiens) (protein)
chain: MLFPISMSATEFLLASVIFCLVFWVIRASRPQVPKGLKNPPGPWGWPLIGHMLTLGKNPHLALSRMSQQYGDVLQIRIGSTPVVVLSGLDTIRQALVRQGDDFKGRPDLYTFTLISNGQSMSFSPDSGPVWAARRRLAQNGLKSFSIASDPASSTSCYLEEHVSKEAEVLISTLQELMAGPGHFNPYRYVVVSVTNVICAICFGRRYDHNHQELLSLVNLNNNFGEVVGSGNPADFIPILRYLPNPSLNAFKDLNEKFYSFMQKMVKEHYKTFEKGHIRDITDSLIEHCQEKQLDENANVQLSDEKIINIVLDLFGAGFDTVTTAISWSLMYLVMNPRVQRKIQEELDTVIGRSRRPRLSDRSHLPYMEAFILETFRHSSFVPFTIPHSTTRDTSLKGFYIPKGRCVFVNQWQINHDQKLWVNPSEFLPERFLTPDGAIDKVLSEKVIIFGMGKRKCIGETIARWEVFLFLAILLQRVEFSVPLGVKVDMTPIYGLTMKHACCEHFQMQLRS
notes: purchased BD Biosciences 456211; host or cells: baculovirus infected insect cells (BTI-TN-5B1-4)
Take B3: in data set [2] (other: CYP 1A1), the Michaelis-Menten constant (Km) was 25.5 µM, the kcat was 47.3 pmol/(min · nmol CYP) and the kcat/Km was 1.9 μL/(min. · nmol CYP).

B4: CYP2C8 (Homo sapiens) (protein)
chain: MEPFVVLVLCLSFMLLFSLWRQSCRRRKLPPGPTPLPIIGNMLQIDVKDICKSFTNFSKVYGPVFTVYFGMNPIVVFHGYEAVKEALIDNGEEFSGRGNSPISQRITKGLGIISSNGKRWKEIRRFSLTTLRNFGMGKRSIEDRVQEEAHCLVEELRKTKASPCDPTFILGCAPCNVICSVVFQKRFDYKDQNFLTLMKRFNENFRILNSPWIQVCNNFPLLIDCFPGTHNKVLKNVALTRSYIREKVKEHQASLDVNNPRDFIDCFLIKMEQEKDNQKSEFNIENLVGTVADLFVAGTETTSTTLRYGLLLLLKHPEVTAKVQEEIDHVIGRHRSPCMQDRSHMPYTDAVVHEIQRYSDLVPTGVPHAVTTDTKFRNYLIPKGTTIMALLTSVLHDDKEFPNPNIFDPGHFLDKNGNFKKSDYFMPFSAGKRICAGEGLARMELFLFLTTILQNFNLKSVDDLKNLNTTAVTKGIVSLPPSYQICFIPV
notes: purchased BD Biosciences 456252; host or cells: baculovirus infected insect cells (BTI-TN-5B1-4)
For B4, in data set [2] (other: CYP 2C8), the Km was 2.9 µM, the kcat was 14.3 pmol/(min · nmol CYP) and the specificity constant (kcat/Km) is reported as 5 μL/(min. · nmol CYP).

B5: rhCYP2C9 (Homo sapiens) (protein)
chain: MDSLVVLVLCLSCLLLLSLWRQSSGRGKLPPGPTPLPVIGNILQIGIKDISKSLTNLSKVYGPVFTLYFGLKPIVVLHGYEAVKEALIDLGEEFSGRGIFPLAERANRGFGIVFSNGKKWKEIRRFSLMTLRNFGMGKRSIEDRVQEEARCLVEELRKTKASPCDPTFILGCAPCNVICSIIFHKRFDYKDQQFLNLMEKLNENIKILSSPWIQICNNFSPIIDYFPGTHNKLLKNVAFMKSYILEKVKEHQESMDMNNPQDFIDCFLMKMEKEKHNQPSEFTIESLENTAVDLFGAGTETTSTTLRYALLLLLKHPEVTAKVQEEIERVIGRNRSPCMQDRSHMPYTDAVVHEVQRYIDLLPTSLPHAVTCDIKFRNYLIPKGTTILISLTSVLHDNKEFPNPEMFDPHHFLDEGGNFKKSKYFMPFSAGKRICVGEALAGMELFLFLTSILQNFNLKSLVDPKNLDTTPVVNGFASVPPFYQLCFIPV
notes: purchased BD Biosciences 456258; host or cells: baculovirus infected insect cells (BTI-TN-5B1-4)
As for B5, in data set [3], the Km was 34.5 µM, the kcat is on record as 2596 ± 233 pmol/min/nmol and the kcat/Km worked out at 1250 M⁻¹ s⁻¹.
